B1: CPEB3 Ribozyme (parent)
chain: UAACAGGGGGCCACAGCAGAAGCGUUCACGUCGCAGCCCCUGUCAGAUUCUGGUGAAUCUGCGAAUUCUGCUGUAUAUCUC

Variants of: B1
Assay: self-cleavage, relative activity (ratio to wild type); higher = more cleavage; in vitro, sequencing
How it was run: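 Barcoded CPEB3 ribozyme mutants, produced by rounds of error-prone PCR, self-cleaved while being transcribed with T7 RNA polymerase for 5 hours at 37°C and during a subsequent 15 min DNase I step before EDTA was added. Sequencing of template-switched cDNA on Illumina gave cleaved and total reads, and DNA sequencing assigned barcodes to variants. Each variant's relative activity is its cleaved/total read fraction divided by the unmutated ribozyme's fraction, averaged across three batches. A variant needed a minimum of 5 reads.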

Variant	self-cleavage
A35G U41A	0.44
A35G U41C	1.23
A35G U41G	0.33
G36C U58C	0.14
G36A U66C	0.33
G36C A77G	0.29
G36U G63A	0.12
G36U G63U	0.12
G36U U76C	0.2
G36U U76A	0.2
G36C A56U	0.13
G36C A56G	0.21
A35G U80C	1.3
A35G U80A	1.32
A35G U80G	1.37
A35G U58A	1.07
A35G U58C	1.23
A35G U58G	1.09
G36U A57G	0.48
G36U A75G	0.11
G36U A77G	0.12
G36U A77U	0.19
A35U A57C	0.31
A35U A57G	0.47

Variant	self-cleavage
A35U A57U	0.2
G36U U54C	0.26
G36A A45G	0.21
G36A A45U	0.27
A35G U49A	1.23
A35G U49C	1.05
A35U U43A	0.71
A35U U43C	0.35
A35U U43G	0.15
C37A U54G	0.2
G36C A64G	0.16
A35U U67G	0.35
A35U U67C	0.21
A35U U67A	0.24
A35G U54G	1.32
A35G U54C	1.29
A35G U54A	1.28
C37A C38A	0.27
G36U U51G	0.15
A35U U72G	0.54
A35U U72A	0.31
A35U U72C	0.54
A35G U78G	1.29
A35G U78A	1.35

Variant	self-cleavage
A35G U78C	1.3
G36A C39G	0.16
A35U U80G	0.65
A35U U80A	0.58
A35U U80C	0.63
A35U G36A	0.19
A35U G36U	0.1
A35G U43G	0.36
A35G U43A	1.28
A35G U43C	1.22
A35G C79U	1.51
A35U U69A	0.26
A35U U69C	0.23
A35U U69G	0.26
A35U C68A	0.11
A35U U60C	0.24
A35U U60G	0.17
A35U U60A	0.25
G36A U58C	0.27
G36A U58G	0.19
G36A U58A	0.13
A35U U74A	0.89
A35U U74C	0.86
G36A A57G	0.17

Variant	self-cleavage
G36C A45U	0.14
G36C A45G	0.17
G36U U78A	0.43
G36U U78C	0.17
G36U U72C	0.13
G36A C44G	0.14
A35U C38U	0.47
A35U C38A	0.21
A35U G52U	0.72
A35U G52A	0.54
A35U G52C	0.44
A35U U66G	0.13
A35U U66A	0.34
A35U U66C	0.25
A35U G63C	0.45
A35U G63U	0.52
A35U G63A	0.27
C37A U43C	0.43
C37A U43A	0.14
A35G U60G	1.04
A35G U60A	1.14
A35G U60C	1.03
A35U	0.54
A35U A77U	0.59

Variant	self-cleavage
A35U A77G	0.57
A35U C40G	0.17
A35U C40U	0.37
A35U C40A	0.09
G36A U43C	0.29
C37A C71U	0.2
A35U C59U	0.29
A35U C59A	0.15
G36A C71U	0.15
G36A G61C	0.16
G36C U74C	0.2
A35U G55U	0.43
A35U G55C	0.47
G36U U69C	0.15
G36U U69A	0.2
A35G G53A	1.33
A35G G53U	1.27
A35U U78A	0.54
A35U U78C	0.52
C37A U49C	0.11
C37A U49A	0.13
G36A A47U	0.13
G36A A47G	0.34
G36U A47U	0.08

Variant	self-cleavage
G36U A47G	0.11
A35G U48A	1.14
A35G U48C	1.21
A35G G46C	1.12
A35G G46A	0.96
G36U U74C	0.31
G36A U48C	0.19
G36A G55A	0.09
C37A A77G	0.18
C37A A77U	0.28
A35U U41A	0.3
A35U U41G	0.32
A35U U41C	0.5
G36C G61C	0.14
G36C G61U	0.12
G36U U60C	0.11
C37A C39A	0.29
A35G G63A	1.29
A35G G63U	1.2
A35G G63C	1.27
G36A A64G	0.15
G36A A64U	0.14
G36C U80C	0.13
G36C U80A	0.12

Variant	self-cleavage
A35G G70U	0.78
A35G G70A	1.13
G36A U78C	0.23
A35G U66G	1.26
A35G U66C	1.17
A35G U66A	1.34
G36A G42U	0.13
A35G G55C	1.46
A35G G55A	1.23
A35U U58A	0.32
A35U U58G	0.15
A35U U58C	0.27
G36C U66C	0.23
G36U U67A	0.64
A35G U76A	1.33
A35G U76G	1.49
A35G U76C	1.29
G36A C59U	0.31
G36A U51G	0.19
G36A U51A	0.4
G36A U51C	0.2
G36A A77G	0.17
G36A A77C	0.48

Reference: the RNAGym collection of RNA variant scans (doi:10.1093/nar/gkz1192)
